According to the RNAGym collection of RNA variant scans (doi:10.7554/elife.80360):

B1: HDV Ribozyme (parent)
chain: GGCCGGCAUGGUCCCAGCCUCCUCGCUGGCGCCGGCUGGGCAACAUUCCGAGGGGACCGUCCCCUCGGUAAUGGCGAAUGGGACCCA

Variants of: B1
Experiment: self-cleavage, relative activity (ratio to wild type); higher = more cleavage; co-transcriptional
Work on C19G A70C yielded a self-cleavage of 0.
Variant C19A G76A has a self-cleavage of 0.185.
C18G C32G gave a self-cleavage of 0.107.
Work on C18U U27A yielded a self-cleavage of 0.95.
Work on C18U U27C yielded a self-cleavage of 0.268.
With C18A C57U the self-cleavage was 0.086.
Work on C19A A42G yielded a self-cleavage of 0.0811.
In the case of C18G C41G, the self-cleavage is reported as 0.266.
C19G A78C gave a self-cleavage of 0.119.
In the case of C18U A87U, the self-cleavage is reported as 0.853.
Work on C19A A78U yielded a self-cleavage of 0.138.
In the case of C19A A78G, the self-cleavage is reported as 0.0845.
In the case of C18A G52A, the self-cleavage is reported as 0.196.
In the case of C18A G52U, the self-cleavage is reported as 0.237.
C19G A83C gave a self-cleavage of 0.
C18G U23G gave a self-cleavage of 0.
G17C G59C gave a self-cleavage of 0.243.
C18A G59C gave a self-cleavage of 0.0639.
For C18A C19A, the self-cleavage was 0.128.
For C18A C19G, the self-cleavage was 0.145.
Variant C19A G50C has a self-cleavage of 0.0923.
G17C G25U gave a self-cleavage of 0.101.
In the case of C18U C30U, the self-cleavage is reported as 0.185.
Work on G17C C61G yielded a self-cleavage of 0.519.
For C18A C61A, the self-cleavage was 0.0615.
In the case of C18A C61G, the self-cleavage is reported as 0.172.
C18G A56C gave a self-cleavage of 0.0755.
In the case of G17C U60G, the self-cleavage is reported as 0.356.
Variant C18U C75A has a self-cleavage of 0.366.
G17C C62U gave a self-cleavage of 0.405.
In the case of C18U G55C, the self-cleavage is reported as 0.893.
C18G G80C showed a self-cleavage of 0.0707.
Variant C19A G55U has a self-cleavage of 0.0923.
C19A G55C gave a self-cleavage of 0.0489.
C18A C36G showed a self-cleavage of 0.
Work on C18A C36A yielded a self-cleavage of 0.0361.
In the case of C19A C63A, the self-cleavage is reported as 0.153.
With C18G A43U the self-cleavage was 0.189.
C18U U20C showed a self-cleavage of 0.0923.
For C18G U27A, the self-cleavage was 0.0665.
For C18A U69A, the self-cleavage was 0.19.
With C18G U46C the self-cleavage was 0.
In the case of C19A G25A, the self-cleavage is reported as 0.138.
With C18G U72A the self-cleavage was 0.
C18U G50C gave a self-cleavage of 0.705.
Work on C18U G50U yielded a self-cleavage of 0.639.
For C18A C85G, the self-cleavage was 0.0475.
C18U A43C gave a self-cleavage of 0.295.
C18U A43G showed a self-cleavage of 0.17.
With C18A C49G the self-cleavage was 0.119.
With C18A C49A the self-cleavage was 0.111.
Variant G17U G28A has a self-cleavage of 0.188.
Variant C18U C58A has a self-cleavage of 0.612.
For C18U A56U, the self-cleavage was 0.745.
For C18U A56C, the self-cleavage was 0.628.
Variant C18U A56G has a self-cleavage of 0.719.
C19A G28A showed a self-cleavage of 0.225.
C18A G34U showed a self-cleavage of 0.0489.
With C18A A70U the self-cleavage was 0.0898.
Work on C18U C24U yielded a self-cleavage of 0.141.
Work on G17C G50U yielded a self-cleavage of 0.332.
For G17C G50A, the self-cleavage was 0.148.
G17C U46G gave a self-cleavage of 0.0923.
With C19A U72A the self-cleavage was 0.0504.
C18G G38C gave a self-cleavage of 0.
In the case of C18G G38U, the self-cleavage is reported as 0.0386.
For C18G C64U, the self-cleavage was 0.147.
C18G C64G showed a self-cleavage of 0.156.
For C18A C62A, the self-cleavage was 0.102.
For C18A A87U, the self-cleavage was 0.126.
Variant C19A A56G has a self-cleavage of 0.256.
C18U U69A gave a self-cleavage of 0.397.
Variant C18U U69C has a self-cleavage of 0.878.
With C18G A87G the self-cleavage was 0.12.
For C18G A87U, the self-cleavage was 0.154.
C19A G67A showed a self-cleavage of 0.0941.
With C19A G67U the self-cleavage was 0.281.
G17C G29U showed a self-cleavage of 0.
For G17C G29A, the self-cleavage was 0.0437.
For G17C C66A, the self-cleavage was 0.262.
C18U C19A gave a self-cleavage of 0.0906.
C18G A83U showed a self-cleavage of 0.101.
With C18A U27G the self-cleavage was 0.115.
Work on C18A U27C yielded a self-cleavage of 0.135.
With C19A U69C the self-cleavage was 0.146.
In the case of C18A C48G, the self-cleavage is reported as 0.102.
For C18G C63G, the self-cleavage was 0.199.
In the case of C19A C22U, the self-cleavage is reported as 0.0203.
Work on C19A C22G yielded a self-cleavage of 0.155.
For C18U C61A, the self-cleavage was 0.709.
Variant C18U C61G has a self-cleavage of 0.53.
Variant C18U G35C has a self-cleavage of 0.119.
G17C C22U showed a self-cleavage of 0.0639.
G17U A71G gave a self-cleavage of 0.323.
With C19A G29U the self-cleavage was 0.0733.
With G17C C84G the self-cleavage was 0.18.
Work on G17C C84U yielded a self-cleavage of 0.326.
For C18U C26A, the self-cleavage was 0.591.
With C18U C26U the self-cleavage was 0.848.
Variant G17U U79G has a self-cleavage of 0.406.
For G17U U79C, the self-cleavage was 0.584.
Variant G17U U79A has a self-cleavage of 0.755.
In the case of C18G C75A, the self-cleavage is reported as 0.
C18G C75U showed a self-cleavage of 0.0615.
Variant C18G G50A has a self-cleavage of 0.138.
C18G G50U showed a self-cleavage of 0.196.
C19A G40A gave a self-cleavage of 0.109.
Work on G17U C33G yielded a self-cleavage of 0.0831.
Work on G17U C33A yielded a self-cleavage of 0.143.
Variant C18U G53A has a self-cleavage of 0.639.
C18U G53C showed a self-cleavage of 0.607.
For G17U G81A, the self-cleavage was 0.415.
Work on G17U G81U yielded a self-cleavage of 0.381.
With G17U G81C the self-cleavage was 0.197.
G17U C30A showed a self-cleavage of 0.831.
G17U C30G showed a self-cleavage of 0.486.
In the case of C18G C19G, the self-cleavage is reported as 0.
With G17C G81A the self-cleavage was 0.0978.
G17C G81C gave a self-cleavage of 0.0898.
C18U A51G gave a self-cleavage of 0.623.
For G17U A56G, the self-cleavage was 0.609.
With C19A G38C the self-cleavage was 0.0248.
In the case of C18U G54C, the self-cleavage is reported as 0.606.
With C18U A71C the self-cleavage was 0.259.
For C18U A71U, the self-cleavage was 0.724.
C19A C48U showed a self-cleavage of 0.0683.
For C19A C48A, the self-cleavage was 0.0934.
Work on C19A C48G yielded a self-cleavage of 0.22.
For C18A U47G, the self-cleavage was 0.
For G17C C41G, the self-cleavage was 0.0354.
C18U G28C showed a self-cleavage of 0.089.
Variant G17C C57G has a self-cleavage of 0.516.
For C19G A56C, the self-cleavage was 0.0489.
With C18A A78U the self-cleavage was 0.128.
Work on C18G G28U yielded a self-cleavage of 0.0405.
Variant C18U G82U has a self-cleavage of 0.111.
In the case of G17U G38C, the self-cleavage is reported as 0.0997.
C18G G55A showed a self-cleavage of 0.145.
With C19A C66U the self-cleavage was 0.116.
Work on C18U G29U yielded a self-cleavage of 0.0639.
Variant C18U G29A has a self-cleavage of 1.06.
C18U C41U gave a self-cleavage of 0.49.
Work on G17C G52C yielded a self-cleavage of 0.19.
For G17U U69C, the self-cleavage was 0.869.
Work on C18G C33A yielded a self-cleavage of 0.
Variant G17C G73A has a self-cleavage of 0.156.
For G17C G73C, the self-cleavage was 0.0875.
Variant G17C G73U has a self-cleavage of 0.0852.
Work on C18A G29U yielded a self-cleavage of 0.821.
C18A G29C gave a self-cleavage of 0.266.
G17U G76C showed a self-cleavage of 0.751.
Work on C18G C22G yielded a self-cleavage of 0.0755.
C18G C44G showed a self-cleavage of 0.0723.
Work on G17U G50U yielded a self-cleavage of 0.609.
With G17U C48G the self-cleavage was 0.482.
For C18U G59C, the self-cleavage was 0.651.
Work on C18G G73U yielded a self-cleavage of 0.119.
With G17U G82C the self-cleavage was 0.269.
G17U G82U showed a self-cleavage of 0.361.
G17C G35A showed a self-cleavage of 0.147.
G17C G35U gave a self-cleavage of 0.0773.
With C18A C21U the self-cleavage was 0.089.
C18A C21A showed a self-cleavage of 0.125.
In the case of C19A A87G, the self-cleavage is reported as 0.11.
Variant C19A A87C has a self-cleavage of 0.148.
C18U G81C showed a self-cleavage of 0.136.
With C18U G81A the self-cleavage was 0.265.
